Measured values as given in patent US20090196877A1.

Biological target: SIINFEKL/H-2 Kb (mouse) (UniProt P01901)

Substance: OT-1 T cell Receptor (TCR) of OT-1 TCR transgenic T cells
- expression of the cell surface markers CD44, CD69 and CD25 on OT-1 cells after stimulation with irradiated CD80/EG7: 100%
